Measurements reported in article PMC7473855.

Target: Ty1 nanobody, biotinylated on the C-terminus (alpaca)
Assay: BLI; comparative binding test; biotinylated nanobody on streptavidin (SAX) biosensors at about 0.7 nm, dipped into monomeric RBD at 550 nM; 2xPBS with 0.05% Tween-20; Octet RED

Ty1 nanobody, biotinylated on the C-terminus (alpaca), sequence (VHH, as listed by the source): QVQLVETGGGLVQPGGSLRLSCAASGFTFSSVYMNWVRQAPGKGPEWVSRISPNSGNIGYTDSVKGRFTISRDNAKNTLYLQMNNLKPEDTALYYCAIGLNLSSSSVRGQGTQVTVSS

Question: How did the BLI response at 550 nM RBD turn out when “SARS-CoV-2 spike receptor-binding domain (RBD) (from UniProt P0DTC2 319-541) (domain or fragment)” was run?
Answer: The BLI response at 550 nM RBD was 1.5 nm.
